Results from patent US20230228751 (APTAMER DIAGNOSTICS LIMITED, published 2023).

Experiments:
Assay in all cases: BLI
[1] = biological target: SARS-CoV-2 spike S1 subunit (SARS-CoV-2, UniProt P0DTC2 SEQ:1-670); details: tags: His tag, SinoBiological 40591-V08B1; label: 5'-biotin
SARS-CoV-2 spike RBD = SARS-CoV-2 spike RBD (SARS-CoV-2, UniProt P0DTC2 SEQ:1-223); details: tags: His tag, SinoBiological 40592-V08H
[2] = biological target: SARS-CoV spike S1 subunit (SARS-CoV, UniProt P59594 SEQ:14-667); details: tags: SinoBiological

Row | Binder | binding result [1] | binding result (SARS-CoV-2 spike RBD; label: 5' biotin) | binding result ([2]; label: 5'-biotin) | binding result (SARS-CoV-2 spike RBD; label: 5'-biotin) | binding result ([2]; label: 5' biotin)
1 | S1_A3_F12 (ssDNA) DNA: CCAGTGTAGACTACTCAATGCGTGGGAAGGGTGGGTGGGAGCATTGATAACTCGGAGGAGTGTA | binds | – | – | – | –
2 | GGTATATGGGTGGGAGGGTCGGGT (ssDNA) [S1_A8_F22] | binds | – | – | – | –
3 | S1_C1-A (ssDNA) DNA: CCAGTGTAGACTACTCAATGCTGTGTTGACTTGATCCTGTGGTATTTGGGTGGGAGGGGCGGGTACTATCCACAGGTCAACC | binds | binds | no binding | – | –
4 | S1_B12-B (ssDNA) DNA: CCAGTGTAGACTACTCAATGCTGTGTTGACTTGATCCTGTGGTATATGGGTGGGAGGGATGGGTACTATCCACAGGTCAACC | no binding | – | – | binds | no binding
5 | S1_E6 (ssDNA) DNA: CCAGTGTAGACTACTCAATGCCCAGTGGCGAGCGACTTTTTATGTAAGAACATCGATTTTCCATGGTACTATCCACAGGTCAACC | no binding | – | – | binds | no binding
6 | S1_A1-B (ssDNA) DNA: CCAGTGTAGACTACTCAATGCGGCTGTGTGACTTGACCTCTGGATATGGGAGGGAGGGCGGGTACTATCCACAGGTCAACC | binds | binds | – | – | no binding
7 | AATGCGTGGGAAGGGTGGGTGGGAG (ssDNA) [S1_A3_F17] | binds | – | – | – | –
8 | S1_E5 (ssDNA) DNA: CCAGTGTAGACTACTCAATGCCACCTCCTTTTCCGTTTCTTGTATCATGCTACTATCCTGTGTACTATCCACAGGTCAACC | no binding | – | – | binds | no binding
9 | S1_A8_F13 (ssDNA) DNA: AATGCTGTGTTGACTTGATCCTGTGGTATATGGGTGGGAGGGTCGGGTACTATCCACAGGTCAAC | binds | – | – | – | –
10 | S1_A8_F14 (ssDNA) DNA: ACTTGATCCTGTGGTATATGGGTGGGAGGGTCGGGTACTATCCACAGGTCAAC | binds | – | – | – | –
11 | S1_B11-A (ssDNA) DNA: CCAGTGTAGACTACTCAATGCGTGTGGTGACCTTGACCTTGGATTATGGGTTTGGGCGGGAGGGTACTATCCACAGGTCAACC | binds | binds | – | – | no binding
12 | CCAGTGTAGACTACTCAATGCGTGGGAAGGGTGGGTGGGA (ssDNA) [S1_A3_F9] | binds | – | – | – | –
13 | S1_E3 (ssDNA) DNA: CCAGTGTAGACTACTCAATGCCGATGGGTCGGGTGGGTGGGTAGGCATTGATCGCTCCTCCGTACTATCCACAGGTCAACC | binds | – | no binding | binds | –
14 | S1_B1 (ssDNA) DNA: CCAGTGTAGACTACTCAATGCCGATGGGTCGGGTGGGTGGGTAGGCATTGATCGCTCCTCAGTACTATCCACAGGTCAACC | binds | binds | – | – | no binding
15 | S1_A6_F12 (ssDNA) DNA: CCAGTGTAGACTACTCAATGCTGTTATGACTTGACCTTGGGTTATGGGTTTGGGCGGGAGGGTA | binds | – | – | – | –
16 | S1_A3-B (ssDNA) DNA: CCAGTGTAGACTACTCAATGCCGATGGGTCGGGGGGGTGGGTAGGCATTGATCGCTCCTTTCGTACTATCCACAGGTCAACC | binds | binds | no binding | – | –
17 | S1_A1-A (ssDNA) DNA: CCAGTGTAGACTACTCAATGCCGATGGGTCGGGTGGGTGGGTAGGCATTGATCGCTCCTTCCGTACTATCCACAGGTCAACC | binds | binds | – | – | no binding
18 | S1_B3 (ssDNA) DNA: CCAGTGTAGACTACTCAATGCCGATGGGTCGGGGGGGTGGGTAGGCATTGATTCCTCCTTTCGTACTATCCACAGGTCAACC | binds | binds | – | – | no binding

Row | Binder | binding result [1] | binding result (SARS-CoV-2 spike RBD; label: 5' biotin) | binding result ([2]; label: 5'-biotin) | binding result (SARS-CoV-2 spike RBD; label: 5'-biotin) | binding result ([2]; label: 5' biotin)
19 | S1_C8 (ssDNA) DNA: CCAGTGTAGACTACTCAATGCCGATGGGTCGGGGGGGTGGGTAGGCATTGATCATTCCTTTCGTACTATCCACAGGTCAACC | binds | binds | no binding | – | –
20 | S1_A6_F14 (ssDNA) DNA: ACTTGACCTTGGGTTATGGGTTTGGGCGGGAGGGTACTATCCACAGGTCAACC | binds | – | – | – | –
21 | S1_C2 (ssDNA) DNA: CCAGTGTAGACTACTCAATGCGGCTGTGTGACTTGACCTCTGGATATGGGTGGGAGGGATGGGTACTATCCACAGGTCAACC | binds | binds | – | – | no binding
22 | S1_C3-A (ssDNA) DNA: CCAGTGTAGACTACTCAATGCTGTGTTGACTTGATCCTGTGGCATATGGGTGGGAGGGCGGGTACTATCCACAGGTCAACC | no binding | – | – | binds | no binding
23 | S1_B4 (ssDNA) DNA: CCAGTGTAGACTACTCAATGCTGTGTTGACTTGATCCTGTGGTATATGGGTGGGAGGGAGGGTACTATCCACAGGTCAACC | binds | binds | – | – | no binding
24 | S1_B9 (ssDNA) DNA: CCAGTGTAGACTACTCAATGCTGTGTTGACTTGATCCTGTGGTATATGGGTGGGAGGGCGGGTACTATCCACAGGTCAACC | binds | binds | – | – | no binding
25 | S1_A6_F13 (ssDNA) DNA: AATGCTGTTATGACTTGACCTTGGGTTATGGGTTTGGGCGGGAGGGTACTATCCACAGGTCAACC | binds | – | – | – | –
26 | S1_A12 (ssDNA) DNA: CCAGTGTAGACTACTCAATGCCGTGTGGTGACCTTGATCCTGTGGTATATGGGTGGGAGGGGCGGGTACTATCCACAGGTCAACC | binds | binds | – | – | no binding
27 | S1_C1-B (ssDNA) DNA: CCAGTGTAGACTACTCAATGCCGCTTCTCGACCGCCCCTTGTTTTGGTTCTTTTGTCCGTAGTACTATCCACAGGTCAACC | binds | binds | – | – | no binding
28 | S1_A4 (ssDNA) DNA: CCAGTGTAGACTACTCAATGCGTGGGAAGGGTGGGCGGGAGCATTGATAACTCGGAGGAGCGTACTATCCACAGGTCAACC | binds | binds | – | – | no binding
29 | ACTTGATCCTGTGGTATATGGGTGGGAGGGTCGGGT (ssDNA) [S1_A8_F20] | binds | – | – | – | –
30 | GTATATGGGTGGGAGGGTCGGGTACTATCCACAGGTCAAC (ssDNA) [S1_A8_F2] | binds | – | – | – | –
31 | S1_D6 (ssDNA) DNA: CCAGTGTAGACTACTCAATGCTACTGACTCATCTGCCGAATCCAAACCCGACCAGTCCACGGTACTATCCACAGGTCAACC | no binding | – | – | binds | no binding
32 | S1_A3_F11 (ssDNA) DNA: CCAGTGTAGACTACTCAATGCGTGGGAAGGGTGGGTGGGAGCATTGATAACTC | binds | – | – | – | –
33 | S1_A8_F12 (ssDNA) DNA: CCAGTGTAGACTACTCAATGCTGTGTTGACTTGATCCTGTGGTATATGGGTGGGAGGGTCGGGT | binds | – | – | – | –
34 | S1_D11-B (ssDNA) DNA: CCAGTGTAGACTACTCAATGCCGGCCGGGAGGGAGGGGTGGGTAAAGCCGCGCAACATATAGTACTATCCACAGGTCAACC | binds | – | binds | binds | –
35 | CCAGTGTAGACTACTCAATGCGTGGGAAGGGTGGGTGGGAGCATTGAT (ssDNA) [S1_A3_F10] | binds | – | – | – | –
36 | S1_A9 (ssDNA) DNA: CCAGTGTAGACTTACACCTGCAGTGTTCACGAGGGCCGGCGGTATATGGGCGGTTGATACGAGTACTATCCACAGGTCAACC | binds | binds | – | – | no binding
